Key:
[1] = molecular target: T1, SARS-CoV-2 Receptor Binding Domain (RBD) protein (SARS-CoV-2, UniProt P0DTC2 319-541); assay: SPR (Carterra LSA)
T1 construct: also called Sars-Cov-2 (COV2)

[2] = molecular target: T1, SARS-CoV-2 Receptor Binding Domain …; assay: SPR (Carterra LSA); scFv captured by anti-V5, RBD as analyte

Row | Binder | Kd [1] [nM] | Kd [2] [nM] | koff [2] [s⁻¹] | kon [2] [M⁻¹ s⁻¹]
1 | COVID19_P13_G12 (scFv, V domains shown) VH: QVQLVQSGAEVKKPGSSVKVSCKASGYTFINYEIHWVRQAPGQGLEWMGGITPIFGTANYAQKFQGRVTITADESTSTAYMELSSLRSEDTAVYYCARDTVMGGMDVWGQGTLVTVSS VL: SSYVLTQPPSVSVAPGKTARITCGGNNIGSKSVHWYQQKPGQAPVLVIYYDSDRPSGIPERFSGSNSGNTATLTISRVEAGDEADYYCQVWDSSSDYVFGGGTKLTVLA | < 50 | 6.48 | 0.00088 | 140000
2 | COVID19_P01_E12 (scFv, V domains shown) VH: QVQLVQSGAEVKKPGSSVKVSCKASGYTFTTYDINWVRQAPGQGLEWMGWINPNSGGTNYAQKFQGRVTITADESTSTAYMELSSLRSEDTAVYYCARDTYWGGMDVWGQGTLVTVSS VL: SSYVLTQPPSVSVAPGKTARITCGGNNIGSKSVHWYQQKPGQAPVLVIYDDSDRPSGIPERFSGSNSGNTATLTISRVEAGDEADYYCQVWDSSSFYVFGGGTKLTVLA | – | 32.5 | 0.0108 | 331000
3 | COVID19_P13_C07 (scFv, V domains shown) VH: QVQLVQSGAEVKKPGSSVKVSCKASGGTFSRYDINWVRQAPGQGLEWMGIINPSGGSTTYAQKFQGRVTITADESTSTAYMELSSLRSEDTAVYYCAHDTVMGGMDVWGQGTLVTVSS VL: SSYVLTQPPSVSVAPGKTARITCGGNNIGSKSVHWYQQKPGQAPVLVIYYDSDRPSGIPERFSGSNSGNTATLTISRVEAGDEADYYCQVWDSSSYYVFGGGTKLTVLA | – | 41.5 | 0.0095 | 230000
4 | COVID19_P14_D11 (scFv, V domains shown) VH: QVQLVQSGAEVKKPGSSVKVSCKASGYTFNRFAMTWVRQAPGQGLEWMGTINPSGGSTIYTQRFQGRVTITADESTSTAYMELSSLRSEDTAVYYCGHDTVMGGMGEWGQGTLVTVSS VL: SSYVLTQPPSVSVAPGKTARITCGGNNIGSKSVHWYQQKPGQAPVLVIYYDSDRPSGIPERFSGSNSGNTATLTISRVEAGDEADYYCQSTDSSSDYVFGGGTKLTVLA | – | 48.2 | 0.00987 | 205000
5 | COVID19_P02_C07 (scFv, V domains shown) VH: QVQLVQSGAEVKKPGSSVKVSCKASGYTFSSYYIHWVRQAPGQGLEWMGGIIPIFGEAEYAHKFQGRVTITADESTSTAYMELSSLRSEDTAVYYCAMETVMGGMDVWGQGTLVTVSS VL: SSYVLTQPPSVSVAPGKTARITCGGNNIGSKSVHWYQQKPGQAPVLVIYYDSDRPSGIPERFSGSNSGNTATLTISRVEAGDEADYYCQVWDSSSDYVFGGGTKLTVLA | < 50 | 4.34 | 0.00279 | 642000
6 | COVID19_P13_A08 (scFv, V domains shown) VH: QVQLVQSGAEVKKPGSSVKVSCKASGYTFINYDINWVRQAPGQGLEWMGGITPIFGTANYAQKFQGRVTITADESTSTAYMELSSLRSEDTAVYYCARDTVMGGMDVWGQGTLVTVSS VL: SSYVLTQPPSVSVAPGKTARITCGGNNIGSKSVHWYQQKPGQAPVLVIYYDSDRPSGIPERFSGSNSGNTATLTISRVEAGDEADYYCQVWDSRSDYVFGGGTKLTVLA | < 50 | 10 | 0.00046 | 46000
7 | COVID19_P01_E06 (scFv, V domains shown) VH: QVQLVQSGAEVKKPGSSVKVSCKASGCTFTRFTMHWVRQAPGQGLEWMGGITPIFGITNYAQKFQGRVTITADESTSTAYMELSSLRSEDTAVYYCAHDTVMGGMEEWGQGTLVTVSS VL: SSYVLTQPPSVSVAPGKTARITCGGNNIGSKSVHWYQQKPGQAPVLVIYYDSDRPSGIPERFSGSNSGNTATLTISRVEAGDEADYYCQVWDSSNDYVFGGGTKLTVLA | – | 48.7 | 0.0118 | 242000
8 | COVID19_P01_B06 (scFv, V domains shown) VH: QVQLVQSGAEVKKPGSSVKVSCKASGYTFSAYYMHWVRQAPGQGLEWMGGITPLFGTPSYAQKFQGRVTITADESTSTAYMELSSLRSEDTAVYYCALETVMGGVGVWGQGTLVTVSS VL: SSYVLTQPPSVSVAPGKTARITCGGNNIGSKSVHWYQQKPGQAPVLVIYYDSDRPSGIPERFSGSNSGNTATLTISRVEAVDEADYYCQVWDSSSDYVFGGGTKLTVLA | < 50 | 28 | 0.0122 | 437000
9 | COVID19_P01_H04 (scFv, V domains shown) VH: QVQLVQSGAEVKKPGSSVKVSCKASGYPFSSYEINWVRQAPGQGLEWMGGITPIFGTANYAQKFQGRVTITADESTSTAYMELSSLRSEDTAVYYCADETVMGGMDVWGQGTLVTVSS VL: SSYVLTQPPSVSVAPGKTARITCGGNNIGSKSVHWYQQKPGQAPVLVIYYDSDRPSGIPERFSGSNSGNTATLTISRVEAGDEADYYCQVWDSSNDYVFGGGTKLTVLA | < 50 | 0.95 | 0.00056 | 590000
10 | COVID19_P13_B12 (scFv, V domains shown) VH: QVQLVQSGAEVKKPGSSVKVSCKASGYTFTDFHMHWVRQAPGQGLEWMGGIIPIFGTANYAQKFQGRVTITADESTSTAYMELSSLRSEDTAVYYCALETVMGGMDVWGQGTLVTVSS VL: SSYVLTQPPSVSVAPGKTARITCGGNNIGSKSVHWYQQKPGQAPVLVIYYDSDRPSGIPERFSGSNSGNTATLTISRVEAGDEADYYCQVWDSSSDYVFGGGTKLTVLA | < 50 | 32.7 | 0.0049 | 150000
11 | COVID19_P13_D01 (scFv, V domains shown) VH: QVQLVQSGAEVKKPGSSVKVSCKASGYTFSDFDINWVRQAPGQGLEWMGGIIPIFGTANYAQKFQGRVTITADESTSTAYMELSSLRSEDTAVYYCGMDTVMGGMTSWGQGTLVTVSS VL: SSYVLTQPPSVSVAPGKTARITCGGNNIGSKSVHWYQQKPGQAPVLVIYYDSDRPSGIPERFSGSNSGNTATLTISRVEAGDEADYYCQVWDSSHDYVFGGGTKLTVLA | < 50 | 3.14 | 0.00035 | 110000
12 | COVID19_P14_C12 (scFv, V domains shown) VH: QVQLVQSGAEVKKPGSSVKVSCKASGYTFTTYDINWVRQAPGQGLEWMGIIDPIGGTTNYAQKFQGRVTITADESTSTAYMELSSLRSEDTAVYYCARDTVGFGMDVWGQGTLVTVSS VL: SSYVLTQPPSVSVAPGKTARITCGGNNIGSKSVHWYQQKPGQAPVLVIYDDSDRPSGIPERFSGSNSGNTATLTISRVEAGDEADYYCQVWDSSSLYVFGGGTKLTVLA | – | 7.8 | 0.000725 | 93000
13 | COVID19_P13_D11 (scFv, V domains shown) VH: QVQLVQSGAEVKKPGSSVKVSCKASGYSFNAFYIHWVRQAPGQGLEWMGGIIPIFGTANYAQKFQGRVTITADESTSTAYMELSSLRSEDTAVYYCALETVMGGMDVWGQGTLVTVSS VL: SSYVLTQPPSVSVAPGKTARITCGGNNIGSKSVHWYQQKPGQAPVLVIYYDSDRPSGIPERFSGSNSGNTATLTISRVEAGDEADYYCQVWDGSSDYVFGGGTKLTVLA | < 50 | 35 | 0.011 | 310000
14 | COVID19_P13_H02 (scFv, V domains shown) VH: QVQLVQSGAEVKKPGSSVKVSCKASGYTFTGFYMQWVRQAPGQGLEWMGGITPILGTANYAQKFQGRVTITADESTSTAYMELSSLRSEDTAVYYCAREIVMGGMDVWGQGTLVTVSS VL: SSYVLTQPPSVSVAPGKTARITCGGNNIGSKSVHWYQQKPGQAPVLVIYYDSDRPSGIPERFSGSNSGNTATLTISRVEAGDEADYYCQSWDSSSDYVFGGGTKLTVLA | < 50 | 40.6 | 0.0084 | 210000
15 | COVID19_P01_G05 (scFv, V domains shown) VH: QVQLVQSGAEVKKPGSSVKVSCKASGYTFTDFYIHWVRQAPGQGLEWMGGIIPIFGTANYAQKFQGRVTITADESTSTAYMELSSLRSEDTAVYYCALETVMGGMDVWGQGTLVTVSS VL: SSYVLTQPPSVSVAPGKTARITCGGNNIGSKSVHWYQQKPGQAPVLVIYYDSDRPSGIPERFSGSNSGNTATLTISRVEAGDEADYYCQVWDSSSHYVFGGGTKLTVLA | < 50 | 2.89 | 0.00123 | 427000
16 | COVID19_P02_D10 (scFv, V domains shown) VH: QVQLVQSGAEVKKPGSSVKVSCKASGYMFTEFYMHWVRQAPGQGLEWMGGIIPVSGTANYAQKFQGRVTITADESTSTAYMELSSLRSEDTAVYYCARETVMGGMDVWGQGTLVTVSS VL: SSYVLTQPPSVSVAPGKTARITCGGNNIGSKSVHWYQQKPGQAPVLVIYYDSDRPSGIPERFSGSNSGNTATLTISRVEAGDEADYYCQVWDSSSDYVFGGGTKLTVLA | < 50 | 26.4 | 0.0029 | 110000
17 | COVID19_P01_C09 (scFv, V domains shown) VH: QVQLVQSGAEVKKPGSSVKVSCKASGYTFTSFDIHWVRQAPGQGLEWMGGIIPIFGTANYAQKFQGRVTITADESTSTAYMELSSLRSEDTAVYYCAYETVMGGMDVWGQGTLVTVSS VL: SSYVLTQPPSVSVAPGKTARITCGGNNIGSKSVHWYQQKPGQAPVLVIYYDSDRPSGIPERFSGSNSGNTATLTISRVEAGDEADYYCQVWDSSSYYVFGGGTKLTVLA | < 50 | 18.2 | 0.0097 | 532000
18 | COVID19_P02_H04 (scFv, V domains shown) VH: QVQLVQSGAEVKKPGSSVKVSCKASGYTFSSFHINWVRQAPGQGLEWMGGITPIFGIANYAQKFQGRVTITADESTSTAYMELSSLRSEDTAVYYCALETVMGGMDVWGQGTLVTVSS VL: SSYVLTQPPSVSVAPGKTARITCGGNNIGSKSVHWYQQKPGQAPVLVIYYDSDRPSGIPERFSGSNSGNTATLTISRVEAGDEADYYCQSWDSSGDYVFGGGTKLTVLA | – | 31.9 | 0.00781 | 245000
19 | COVID19_P14_B08 (scFv, V domains shown) VH: QVQLVQSGAEVKKPGSSVKVSCKASGYTFTSYYVHWVRQAPGQGLEWMGGILPILGTPHYAQKFQGRVTITADESTSTAYMELSSLRSEDTAVYYCALETVMGGMTAWGQGTLVTVSS VL: SSYVLTQPPSVSVAPGKTARITCGGNNIGSKSVHWYQQKPGQAPVLVIYYDSDRPSGIPERFSGSNSGNTATLTISRVEAGDEADYYCQVWDSSSDYVFGGGTKLTVLA | < 50 | 30.8 | 0.0115 | 374000
